*1 amine or outer side, *2 acyl side, *3 side chain or, on linkers, in order; H or OH if unused. Where a SMILES comes first, the peptide text is derived from it. Bridges are numbered along the chain shown (N, C = ends). Roman numbers before positions name the chains, in order. [ ]: non-standard residue; d: D form. Actinocin(9to1) = Cc1c2oc3c(C)ccc(C(=O)[*:1])c3nc-2c(C(=O)[*:2])c(N)c1=O; NMeV = CN[C@H](C(=O)O)C(C)C; Sar = CNCC(=O)O
Key:
COS-7 cells [1] = assay: Analysis of DFHBI cell permeability; format: in vitro ADME; conditions: mammalian cells, 20 μM DFHBI
Description: Analysis of DFHBI Cell Permeability: COS-7 cells were transfected with pCDNA-60CGG-Spinach2. 24 h after transfection, cells were imaged in medium supplemented with 25 mM HEPES, 5 mM MgSO4, 1 μg/ml Hoechst 33342 and 20 μM DFHBI. Images were acquired for Hoechst and Spinach2 signals every 5 min for 1 h for 20 cells. All signals were first normalized to area and then normalized to the highest signal for a given nucleus to determine the time for maximal signal to be reached.

COS-7 cells [2] = assay: Live cell imaging of (CGG)60-Spinach / (CGG)60-Spinach2 in COS-7 cells; format: cell-based; conditions: at 8 h, 1 μg/ml
Description: Transfection of COS-7 Cells and Live Cell Imaging: COS-7 cells (ATCC-CRL-1651) were cultured and passaged in DMEM supplemented with 50 units of penicillin and 50 μg of streptomycin per milliliter. […] Cells were imaged in CO2-independent medium (Invitrogen) supplemented with L-glutamine. At 30 min-1 h before imaging, medium was supplemented with 25 mM HEPES, 5 mM MgSO4, 1 μg/ml Hoechst 33342 (when appropriate) and 20 μM DFHBI or vehicle. […] Spinach was imaged with a filter cube typically used for fluorescein or EGFP, with a sputter-coated excitation filter 470/40 nm, dichroic mirror 495 nm (long-pass), and emission filter 525/50 (Chroma Technology). DsRed-Max and mCherry were imaged using a filter cube typically used for Texas Red, with a sputter coated excitation filter 560/40 nm and emission filter 630/75 nm (Chroma Technology). Background intensity was subtracted from all pixel intensity measurements. Image analyses were completed with NIS-Elements AR 3.2 (Nikon). Drug treatments were carried out as specified. […] DMSO was added to a final concentration of 0.1% for vehicle treatments. […] After 2 h, the transfection medium was replaced with imaging medium containing DFHBI.

[3] = In vitro fluorescence activation of DFHBI by 29-1; format: biochemical; conditions: bound to DFHBI
Text: (§1) In Vitro Characterization of Aptamers: dsDNA from the brightest bacterial cells in a library was PCR amplified from eluted plasmids. Truncation, deletion and point mutation mutants were generated from dsDNAs PCR amplified based on respective ssDNA templates (Protein and Nucleic Acid Facility, Stanford University Medical Center). Primers were designed so the PCR product contained T7 promoter sequence. When indicated, dsDNA or ssDNA also contained tRNA scaffold part. PCR products were then purified with PCR purification columns (Qiagen) and in vitro transcribed utilizing AmpliScribe T7-Flash Transcription Kit (Epicenter). RNA was purified using Bio-Spin columns (Bio-Rad), and quantified using both absorbance values and the Quant-iT RiboGreen RNA Assay Kit (Life Technologies).
All in vitro RNA properties were measured in 40 mM HEPES pH 7.4, 100 mM KCl, 1 mM MgCl2 buffer unless specified separately. […]
To measure the fluorescence of aptamer-fluorophore complexes, an approach that overcomes potential confounding effects of incomplete RNA folding was used. The fluorescence of RNA-fluorophore complexes can be measured in either of two ways: using “excess RNA” or “excess fluorophore” (Ponchon et al., “Recombinant RNA Technology: the tRNA Scaffold,” Nat. Methods 4(7): 571-6 (2007), which is hereby incorporated by reference in its entirety). […]

[4] = In vitro fluorescence activation of DFHBI-1T by 29-1 and truncation mutants; format: biochemical; conditions: bound to DFHBI-1T
Text: as §1
All in vitro RNA properties were measured in 40 mM HEPES pH 7.4, 100 mM KCl, 1 mM MgCl2 buffer unless specified separately. All values presented are averaging of at least three independent experiments, error bars are standard deviations.
(§2) To measure the fluorescence of aptamer-fluorophore complexes, an approach that overcomes potential confounding effects of incomplete RNA folding was used. The fluorescence of RNA-fluorophore complexes can be measured in either of two ways: using “excess RNA” or “excess fluorophore” (Ponchon et al., “Recombinant RNA Technology: the tRNA Scaffold,” Nat. Methods 4(7): 571-6 (2007), which is hereby incorporated by reference in its entirety). In an “excess RNA” experiment enough RNA was added to ensure that all the fluorophore (e.g. 1 μM) is bound to the RNA even if a sizeable portion of the RNA is unfolded. As a result, one can be confident that a 1 μM RNA-fluorophore complex is present, and one can therefore calculate the “molar brightness,” the fluorescence of a specific concentration of RNA-fluorophore complex independent of RNA folding. In the case of excess fluorophore experimental conditions were reversed and 1 μM of RNA was used with a vast excess of the fluorophore. In this case, the amount of RNA-fluorophore complex is highly dependent on the amount of RNA that is folded.

[5] = Folding measurements with DFHBI-1T; format: physicochemical; conditions: in vitro folding assay
Description: Briefly, fluorescence intensity of two solutions were compared: the one having excess of the dye and limiting amount of RNA and the other with excess of RNA and limiting amount of the dye. 1 μM of 1T (or RNA) and 20 μM of RNA (or 1T) was used. Signal from the first condition (limiting RNA) was divided by the signal from the second condition (limiting dye) to determine the fraction folded. To measure folding in a context of different flanking sequences RNA was generated from separate dsDNA fragments. These fragments were PCR amplified to have β-actin, 5S rRNA and 7SK RNA sequences on either or both sides of Broccoli. The folding assay then proceeded as described above.
as §2

[6] = Fluorescence of aptamers bound to DFHO; format: biochemical
Description: To explore this phenomenon further, a library containing over 10 million mutants of this sequence was prepared. Each of the sequences was individually expressed in E. coli bacteria. The bacteria was incubated with the fluorophore DFHO and then sorted based on their fluorescent signal on a fluorescence-activated cell sorting (FACS) instrument. Analysis of the mutations introduced into the 29-1 aptamer allowed prediction of the core sequence necessary for binding DFHO. The possibility that the core binding sequence for DFHO fluorophore is the same as for the DFHBI fluorophore was also considered. The core binding sequence for DFHBI fluorophore is identified in preceding Example 21.

[7] = In-gel imaging of tBroccoli and tdBroccoli (DFHBI-1T / SYBR Gold staining); format: biochemical
Description: In-Gel Imaging of Spinach-Containing RNAs: Total bacterial RNA was purified using Trizol LS reagent (Life Technologies) following the manufacturer's protocol. Typically, 200-500 ng of total RNA or 50-100 ng of in vitro transcribed RNA was loaded into a well of precast 6% TBE-Urea Gel (Life Technologies) and ran at 270-300 V in 1×TBE buffer. RiboRuler Low Range RNA Ladder (Thermo Scientific) was used as band size standard.
After the gel was run to completion, the gel was washed 3×5 min with water and then stained for 30 min in 10 μM DFHBI or DFHBI-1T in buffer containing 40 mM HEPES pH 7.4, 100 mM KCl, 1 mM MgCl2. Then gel was imaged using a ChemiDoc MP with 470/30 nm excitation and 532/28 nm emission. Next, to see all the RNA in the sample, the gel was again washed 3×5 min with water followed by staining for 30 min with SYBR Gold (or Green) dye (Life Technologies) diluted 1/10000 in TBE buffer. Then gel was imaged under the same instrument using preset SYBR Gold (or Green) channel (302 nm excitation and 590/110 nm emission). Gel bands intensities were quantified in Image Lab 5.0 software (Bio-Rad). The bacterial 5S rRNA band was used for loading normalization.

HEK293T cells = assay: Flow cytometry of HEK293T cells expressing 5S rRNA-aptamer fusions with DFHBI-1T; format: cell-based
Description: FIG. 24 illustrates the quantification of the flow cytometry analysis of aptamers expression in mammalian cells. To compare specific aptamers' brightness in mammalian cells, HEK293T cells were transfected with two plasmids: one expressing aptamer (with or without tRNA) fused to 5S rRNA and another expressing mCherry fluorescent protein. Cells were then treated with 40 μM DFHBI-1T and analyzed on FACSAria III instrument in two channels: green (ex=488 nm; em=525±50 nm) and red (ex=561 nm and em=610±20). For quantification, mean fluorescent signal of the non-negative population was calculated and then mean fluorescent signal of the negative population was subtracted from it to assess specific, not background fluorescent signal. Finally, this number was multiplied by the percentage of the non-negative population to provide the total fluorescent signal of the non-negative population. These numbers are plotted on the bar graph above. Where indicated, cells were also pre-treated with 5 mM MgSO4. Error bar indicates robust SD calculated by FlowJo program, used for data analysis.
Imaging 5S-tBroccoli and 5S-t-tdBroccoli: Plasmids were transfected into HEK293T cell using FuGENE HD reagent (Promega) following manufacture's protocol. Cell imaging was carried out as previously described for 5S-Spinach (Paige et al., “RNA Mimics of Green Fluorescent Protein,” Science 333(6042): 642-6 (2011), which is hereby incorporated by reference in its entirety) with DFHBI-1T instead of DFHBI. […]
Flow cytometry was used to quantify average brightness of tRNA. Transfected cells were analyzed in two channels: green (ex=488 nm; em=525±50 nm) and red (ex=561 nm; em=610±20). […] As evidenced from FIG. 14A, 5S-tBroccoli and 5S-tdBroccoli are clearly detectable in the green fluorescence channel and this specific signal appears only upon cells treatment with DFHBI-1T (FIG. 23).

E. coli = assay: Fluorescence measurements of E. coli (colonies, suspensions) expressing aptamers with DFHBI-1T; format: cell-based, Escherichia coli; conditions: tRNA fusions, suspension/plate reader, DFHBI-1T
Description: Fluorescence Measurements of E. coli: Fluorescence measurements of E. coli were done in two general ways. To assess fluorescence brightness of bacterial colonies on a plate Acella or LMG194 strains cells were transferred to a new LB/agar dish with respective antibiotic and allowed to grow overnight at 37° C. Typically four to six colonies for the same aptamer were grown on the same plate to provide statistical data. These plates already contained 40 μM DFHBI-1T (or DFHBI) and 0.2% arabinose (in case of LMG194 strain). When Acella strain was used, 1 mM IPTG was added the next morning and incubation was continued for four to six hours more at 37° C. Bacterial colonies were then imaged under ChemiDoc MP imager as described above and images were processed in ImageJ program.
To measure fluorescence of bacterial cell suspensions BL21 Star (DE3) (Life Technologies) strain and pET28c-based expression plasmids were used. This combination provided the strongest signal. Fresh colony was inoculated into LB media with kanamycin and allowed to grow overnight at 37° C. to OD600 0.4. The cells were then induced with addition of 1 mM IPTG for 2-4 h at 37° C. After induction, cells were normalized for cell density and incubated with 400 μM DFHBI-1T. Cells were then measured for total fluorescence using a Genios Pro plate reader at 465 nm excitation and 535 nm emission. All values were normalized for slightly different excitation and emission spectra of Spinach2 and Broccoli.

CC1=NC(=Cc2cc(F)c(O)c(F)c2)C(=O)N1C [DFHBI, 4-(3,5-difluoro-4-hydroxybenzylidene)-1,2-dimethyl-imidazol-5-one]
time to maximal fluorescence (ability to enter cells) (COS-7 cells [1]): ~30 min

Cc1c2oc3c(C)ccc(C(=O)N[C@@H]4C(=O)N[C@H](C(C)C)C(=O)N5CCC[C@H]5C(=O)N(C)CC(=O)N(C)[C@@H](C(C)C)C(=O)O[C@@H]4C)c3nc-2c(C(=O)N[C@@H]2C(=O)N[C@H](C(C)C)C(=O)N3CCC[C@H]3C(=O)N(C)CC(=O)N(C)[C@@H](C(C)C)C(=O)O[C@@H]2C)c(N)c1=O [actinomycin D] (I: T[dV]P[Sar][NMeV] / II: T[dV]P[Sar][NMeV]; ester I:1-I:C, II:1-II:C; linker I:N-II:N via Actinocin(9to1))
cytotoxicity in COS-7 cells (COS-7 cells [2]): cytotoxicity was observed

B1: 29-1: 99-nucleotide RNA aptamer from SELEX-FACS, SEQ ID NO: 3 (nucleic acid)
chain: GGAGACGCAACUGAAUGAAAUGGUGAAGGAGACGGUCGGGUCCAGGCACAAAAAUGUUGCCUGUUGAGUAGAGUGUGGGCUCCGUAACUAGUCGCGUCAC
modifications: listed as RNA, chemistry not fully specified
emission (em) [3]: 501 nm
excitation (ex) [3]: 450 nm
emission (em) [4]: 507 nm
excitation (ex) [4]: 472 nm
percent folded [5]: 81%
effect on DFHO fluorescence [6]: significantly enhancing its fluorescence

B2: tdBroccoli: dBroccoli in tRNA scaffold, SEQ ID NO: 40 (nucleic acid)
chain: GCCCGGATAGCTCAGTCGGTAGAGCAGCGGAGACGGTCGGGTCCATCTGAGACGGTCGGGTCCAGATATTCGTATCTGTCGAGTAGAGTGTGGGCTCAGATGTCGAGTAGAGTGTGGGCTCCGCGGGTCCAGGGTTCAAGTCCCTGTTCGGGCGCCA
modifications: tdBroccoli
fold more fluorescent than tBroccoli ([7]; gel band intensity, normalized to molecular weight): ~1.8 fold
brighter than tBroccoli (mean fluorescence intensity of the green population) (HEK293T cells; 5S fusions, HEK293T, 40 μM DFHBI-1T): 70%

B3: dBroccoli: dimeric Broccoli, SEQ ID NO: 12 (nucleic acid)
chain: GAGACGGUCGGGUCCAUCUGAGACGGUCGGGUCCAGAUAUUCGUAUCUGUCGAGUAGAGUGUGGGCUCAGAUGUCGAGUAGAGUGUGGGCUC
modifications: listed as RNA, chemistry not fully specified
fluorescence of aptamer-expressing E. coli cells (E. coli): approximately twice as fluorescent as cells expressing Broccoli
fluorescence compared to monomeric Broccoli ([7]; in vitro transcribed tBroccoli and tdBroccoli in PAGE gel): almost twice the fluorescence as the monomeric Broccoli
detection in HEK293T cells of 5S fusions without tRNA scaffold (HEK293T cells; flow cytometry): can be detected in cells
